Data: paper PMC6590835, “A unified mechanism for LLPS of ALS/FTLD-causing FUS as well as its modulation by ATP and oligonucleic acids”

Assays:
[1] = target: FUS U-CTD (RGG2-ZnF-RGG3, ZnF unfolded) (UniProt P35637 371-526); test: NMR HSQC titration (CSD); no Zn; 1:10; Arg/Lys residues; 20 uM protein, 5 mM sodium phosphate pH 6.0, 1 mM MgCl2 (ZnCl2 added for full-length FUS and F-CTD), 25 C; details: protein: recombinant, tags: none
[2] = target: T1, FUS NTD (PLD+RGG1) (UniProt P35637 1-267); test: NMR HSQC titration; 1 mM MgCl2; same residues as TssDNA; 20 uM protein, 5 mM sodium phosphate pH 6.0, 1 mM MgCl2 (ZnCl2 added for full-length FUS and F-CTD), 25 C; details: protein: recombinant; tags: none; unstructured (CD)
[3] = target: T2, FUS F-CTD (RGG2-ZnF-RGG3, ZnF folded) (UniProt P35637 371-526); test: NMR HSQC titration (line broadening); Zn2+; same pattern as TssDNA; 20 uM protein, 5 mM sodium phosphate pH 6.0, 1 mM MgCl2 (ZnCl2 added for full-length FUS and F-CTD), 25 C; details: protein: recombinant; tags: none; unstructured (CD)
[4] = target: T3, FUS full-length (UniProt P35637 1-526); test: NMR HSQC titration (line broadening); Zn2+; highly similar to TssDNA; 20 uM protein, 5 mM sodium phosphate pH 6.0, 1 mM MgCl2 (ZnCl2 added for full-length FUS and F-CTD), 25 C; details: protein: recombinant; tags: none (His-tag removed by stop codon); unstructured (CD)
[5] = target: T3, FUS full-length; test: NMR HSQC competition (displaces ATP); 3 mM ATP; 0.3 mM TssDNA; 20 uM protein, 5 mM sodium phosphate pH 6.0, 1 mM MgCl2 (ZnCl2 added for full-length FUS and F-CTD), 25 C; details: protein: recombinant; tags: none (His-tag removed by stop codon); G4 (by CD in the phosphate buffer)
[6] = target: T1, FUS NTD (PLD+RGG1); test: NMR HSQC titration; 1 mM MgCl2; saturated at 1:2; RGG1 residues; 20 uM protein, 5 mM sodium phosphate pH 6.0, 1 mM MgCl2 (ZnCl2 added for full-length FUS and F-CTD), 25 C; details: protein: recombinant; tags: none; G4 (by CD in the phosphate buffer)
[7] = target: T2, FUS F-CTD (RGG2-ZnF-RGG3, ZnF folded); test: NMR HSQC titration (line broadening); Zn2+; all peaks lost at 1:1; 20 uM protein, 5 mM sodium phosphate pH 6.0, 1 mM MgCl2 (ZnCl2 added for full-length FUS and F-CTD), 25 C; details: protein: recombinant; tags: none; G4 (by CD in the phosphate buffer)

Measured: binding result

FUS U-CTD (RGG2-ZnF-RGG3, ZnF unfolded), sequence (P35637 371-526): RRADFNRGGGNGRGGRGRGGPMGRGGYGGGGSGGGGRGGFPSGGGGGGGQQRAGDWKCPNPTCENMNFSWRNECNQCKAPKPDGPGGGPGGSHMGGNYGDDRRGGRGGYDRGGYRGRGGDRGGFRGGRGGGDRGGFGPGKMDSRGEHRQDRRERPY
T2 sequence (P35637 371-526): as above
T1 sequence (P35637 1-267): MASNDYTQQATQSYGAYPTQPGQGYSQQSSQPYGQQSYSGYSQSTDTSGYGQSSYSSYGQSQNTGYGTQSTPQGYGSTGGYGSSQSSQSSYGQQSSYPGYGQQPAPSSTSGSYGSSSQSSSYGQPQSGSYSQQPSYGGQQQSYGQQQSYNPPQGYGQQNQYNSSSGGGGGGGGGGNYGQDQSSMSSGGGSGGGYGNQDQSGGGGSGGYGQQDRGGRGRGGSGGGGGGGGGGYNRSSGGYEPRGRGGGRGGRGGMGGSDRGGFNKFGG
T3 sequence (P35637 whole entry): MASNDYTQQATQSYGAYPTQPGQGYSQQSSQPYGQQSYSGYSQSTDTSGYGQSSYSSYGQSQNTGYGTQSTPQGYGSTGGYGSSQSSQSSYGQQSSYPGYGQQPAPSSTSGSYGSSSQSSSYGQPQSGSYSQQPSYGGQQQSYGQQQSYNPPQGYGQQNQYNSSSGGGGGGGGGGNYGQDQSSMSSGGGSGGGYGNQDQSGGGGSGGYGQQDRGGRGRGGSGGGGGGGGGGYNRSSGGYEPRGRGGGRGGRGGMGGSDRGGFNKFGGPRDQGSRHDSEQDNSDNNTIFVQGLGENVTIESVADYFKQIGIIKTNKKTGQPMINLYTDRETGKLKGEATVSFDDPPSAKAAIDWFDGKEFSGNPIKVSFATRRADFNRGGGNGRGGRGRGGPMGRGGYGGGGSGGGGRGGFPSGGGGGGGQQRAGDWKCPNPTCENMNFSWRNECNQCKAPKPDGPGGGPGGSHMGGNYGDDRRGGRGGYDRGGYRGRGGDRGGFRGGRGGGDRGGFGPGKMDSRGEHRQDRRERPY

TTTTTTTTTTTTTTTTTTTTTTTT (ssDNA) [T24]
binds: [1]; unstructured (CD) | [2] | [3] | [4]

TTAGGGTTAGGGTTAGGGTTAGGG (structured_DNA) [TssDNA (telomeric ssDNA, 24-mer)]
binds: [1]; G4 (by CD in the phosphate buffer) | [5] | [6] | [7]
